Data as given in patent US20210277122A1 (SHANGHAI HENLIUS BIOTECH, published 2021).

Assays:
[1] = biological target: T1, PD-1-His (purified recombinant 6xHis-tagged PD-1_ECD) (UniProt Q15116 25-170); assay: SPR, antibody captured on anti-human IgG Fc, PD-1-His analyte, 25 C, 1:1 Langmuir
T1 construct: extracellular domain

[2] = biological target: T1, PD-1-His (purified recombinant …); assay: SPR, full-length IgG, PD-1-His analyte (method of Example 3)
[3] = biological target: T2, PD-1 on activated human T cells; assay: flow cytometry on PHA-activated human T cells, FITC-labeled anti-human IgG Fcγ, MFI
T2 construct: the sheet names no target

[4] = biological target: T1, PD-1-His (purified recombinant …); assay: SPR, affinity improvement against the referenced anti-PD-1 antibody
[5] = biological target: T1, PD-1-His (purified recombinant …); assay: SPR, affinity improvement against anti-PD-1 ref
[6] = biological target: T3, Cynomolgus PD-1 (cynomolgus monkey); assay: ELISA on immobilized cynomolgus monkey PD-1/Fc (9 ng per well), peroxidase-labeled anti-human IgG F(ab)'2, OD450nm
T3 construct: PD-1 part of a purchased recombinant PD-1/Fc fusion protein; immobilized at 9 ng per well; also called recombinant cynomolgus monkey PD-1 fusion protein; PD-1/Fc (Sino Biological Inc.)

[7] = biological target: T4, Human PD-1 (human); assay: ELISA on immobilized human PD-1/Fc (9 ng per well), peroxidase-labeled anti-human IgG F(ab)'2, OD450nm
T4 construct: PD-1 part of a purchased recombinant PD-1/Fc fusion protein; immobilized at 9 ng per well; also called recombinant human PD-1 fusion protein; PD-1/Fc (Sino Biological Inc.)

[8] = biological target: T1, PD-1-His (purified recombinant …); assay: competition ELISA: antibody dilutions pre-mixed with PD-1-His (0.1 µg/ml), then added to a plate coated with the referenced anti-PD-1 (4 µg/ml); anti-His-HRP, OD450
[9] = biological target: T1, PD-1-His (purified recombinant …); assay: competition ELISA: PD-1-His (0.1 µg/ml) first bound to a plate coated with the referenced anti-PD-1 (4 µg/ml), antibody dilutions added afterwards; anti-His-HRP, OD450
[10] = biological target: T1, PD-1-His (purified recombinant …); assay: blocking ELISA: antibody dilutions mixed with PD-L1-AP, added to PD-1-His coated wells, OD405
[11] = biological target: T5, recombinant human PD-1 at the cell surface (PD-1 transfected CHO-S cells) (human, UniProt Q15116 25-288); assay: blocking flow cytometry: PD-1 expressing CHO-S cells incubated with antibody, washed, then biotin-labeled PD-L1-Fc and streptavidin-PE, MFI
T5 construct: whole, on cells; Also used as the target in the mixed leukocyte reaction rows, where it is human PD-1 on T cells; also called PD-1 expressing CHO-S cells; PD-1 expressed CHO-S cells

[12] = biological target: T1, PD-1-His (purified recombinant …); assay: ELISA on PD-1-His, anti-human IgG Fc-HRP, OD450

T1 sequence (Q15116 other isoform, or with tags, fused parts or gaps limits assumed): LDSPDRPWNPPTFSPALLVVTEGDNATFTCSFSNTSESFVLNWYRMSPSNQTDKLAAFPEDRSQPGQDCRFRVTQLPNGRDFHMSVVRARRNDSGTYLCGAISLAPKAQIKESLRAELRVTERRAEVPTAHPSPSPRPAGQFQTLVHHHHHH
T4 sequence (Q15116 25-170): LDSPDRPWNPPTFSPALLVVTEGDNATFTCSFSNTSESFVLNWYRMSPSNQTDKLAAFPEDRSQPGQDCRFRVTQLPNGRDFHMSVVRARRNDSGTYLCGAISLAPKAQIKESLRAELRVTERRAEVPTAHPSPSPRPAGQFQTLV
T2 sequence (chain, as listed by the source limits assumed): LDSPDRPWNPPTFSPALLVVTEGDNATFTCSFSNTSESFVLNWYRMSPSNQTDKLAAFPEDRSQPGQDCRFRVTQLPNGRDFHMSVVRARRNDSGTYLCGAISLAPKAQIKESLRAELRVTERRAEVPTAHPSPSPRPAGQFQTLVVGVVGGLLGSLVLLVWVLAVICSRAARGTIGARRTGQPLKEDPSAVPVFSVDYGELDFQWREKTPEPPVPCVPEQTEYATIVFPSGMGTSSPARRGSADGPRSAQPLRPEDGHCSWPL
T5 sequence (Q15116 25-288): as the sequence (chain, as listed by the source limits assumed) above

| Binder | Kd [1] [nM] | koff [1] [s⁻¹] | kon [1] [M⁻¹ s⁻¹] | Kd [2] [nM] | koff [2] [s⁻¹] | kon [2] [M⁻¹ s⁻¹] | EC50 (read off the curve) [3] [µg/mL] | Improvement [4] [fold] | Improvement [5] [fold] | EC50 (read off the curve) [6] [µg/mL] | EC50 (read off the curve) [7] [µg/mL] | IC50 (read off the curve) [8] [µg/mL] | IC50 (read off the curve) [9] [µg/mL] | IC50 (read off the curve) [10] [µg/mL] | IC50 (read off the curve) [11] [µg/mL] | EC50 (read off the curve) [12] [µg/mL] |
| --- | --- | --- | --- | --- | --- | --- | --- | --- | --- | --- | --- | --- | --- | --- | --- | --- |
| humanized anti-PD-1 antibody 1G4 (h1G4) (antibody, human IgG4 S228P, kappa, V domains shown, CDRs of c1G4 grafted onto IGKV1-39*01 and IGHV3-11*04; also called HLX10; humanized h1G4) VH: QVQLVESGGGLVKPGGSLRLSCAASGFTFSNYGMSWIRQAPGKGLEWVSTISGGGSNIYYADSVKGRFTISRDNAKNSLYLQMNSLRAEDTAVYYCVSYYYGIDFWGQGTSVTVSS VL: DIQMTQSPSSLSASVGDRVTITCKASQDVTTAVAWYQQKPGKAPKLLIYWASTRHTGVPSRFSGSGSGTDFTLTISSLQPEDFATYYCQQHYTIPWTFGGGTKLEIKR | 0.265 | 7.98e-05 | 310000 | 0.479 | 0.000216 | 457000 | ~0.1 | 6.37 | 6.66 | ~0.04 | ~0.03 |  |  |  |  |  |
| referenced anti-PD-1 antibody (antibody, human IgG4 S228P, kappa, V domains shown) VH: QVQLVESGGGVVQPGRSLRLDCKASGITFSNSGMHWVRQAPGKGLEWVAVIWYDGSKRYYADSVKGRFTISRDNSKNTLFLQMNSLRAEDTAVYYCATNDDYWGQGTLVTVSS VL: EIVLTQSPATLSLSPGERATLSCRASQSVSSYLAWYQQKPGQAPRLLIYDASNRATGIPARFSGSGSGTDFTLTISSLEPEDFAVYYCQQSSNWPRTFGQGTKVEIKR |  |  |  |  |  |  |  |  |  | ~0.03 | ~0.02 |  |  |  |  |  |
| chimeric anti-PD-1 antibody c1G4 (antibody, human IgG4 S228P, kappa, V domains shown, also called chimeric c1G4) VH: EVMLVESGGGLVKPGGSLKLSCAASGFTFSNYGMSWVRQTPEKSLEWVATISGGGSNIYYPDSVKGRFTISRDNAKNNLFLQMSGLRSEDTALYYCVSYYYGIDFWGQGTSVTVSS VL: DIVMTQSHKFMSTSVGDRVSITCKASQDVTTAVAWYQQKPGQSPKLLIYWASTRHTGVPDRFTGSGSGTDYTLTINSVQAEDLALYYCQQHYTIPWTFGGGTKLEIKR | 0.434 | 0.000104 | 244000 | 0.325 | 0.000177 | 550000 |  | 9.38 | 4.07 |  |  | ~0.5 | ~0.8 | ~0.4 | ~0.6 | ~0.04 |
